Biological target: SUMO-tagged CGAS (human) (UniProt Q8N884)
Assay: SPR

UniProt Q8N884, sequence (Q8N884 whole entry): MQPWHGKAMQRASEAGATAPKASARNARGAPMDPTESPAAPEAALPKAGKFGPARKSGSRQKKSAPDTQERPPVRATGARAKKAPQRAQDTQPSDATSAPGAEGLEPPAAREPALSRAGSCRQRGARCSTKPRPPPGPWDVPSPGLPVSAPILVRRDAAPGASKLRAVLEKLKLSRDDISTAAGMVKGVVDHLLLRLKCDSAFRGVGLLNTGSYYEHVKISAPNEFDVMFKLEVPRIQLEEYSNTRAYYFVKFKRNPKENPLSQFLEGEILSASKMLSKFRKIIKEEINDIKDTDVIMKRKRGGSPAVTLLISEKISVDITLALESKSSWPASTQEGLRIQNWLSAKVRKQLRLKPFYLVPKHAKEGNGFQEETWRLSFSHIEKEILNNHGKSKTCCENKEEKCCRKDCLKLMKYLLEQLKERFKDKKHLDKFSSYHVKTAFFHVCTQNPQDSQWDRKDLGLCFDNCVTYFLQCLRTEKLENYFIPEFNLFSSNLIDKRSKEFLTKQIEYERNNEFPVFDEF

- Kd: 170 nM
Substance: His-tagged LC3B (from UniProt Q9GZQ8 1-120) (natural protein; other documents disagree on this pair)

Source: paper PMC8726603
